Test results taken from the supplement of paper PMC7125110.
± gives the standard error. For some assays here: Fewer inactive variants are shown than the library holds.

B1: glmS ribozyme (parent)
chain: AUAAAAGCGCCAGAACUACAGAAAUGUAGUUGACGAGGAGGAGGUUUAUCGAAUUUUCGGCGGAUGCCUCCAAA

Legend:
Settings in all cases: with glucosamine-6-phosphate
glucosamine-6-phosphate [1] = variants of: B1; experiment: kcat; higher = faster cleavage; RNA array
In short: (§1)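 Using a hybridised Cy3 probe at 37 °C, barcoded ribozyme variants transcribed in situ by E. coli RNA polymerase on sequenced MiSeq chips were monitored across tiles imaged over ~14 h. The flow contained glucosamine-6-phosphate from 40 μM to 10 mM in HEPES/KCl/Mg(OAc)2 buffer. Signals were normalised to baseline and to non-cleaving reference variants before per-tile medians were fit to one- or two-exponential decays to yield kobs. Weighted Michaelis–Menten fits across concentrations gave kcat and KM.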

glucosamine-6-phosphate [2] = variants of: B1; experiment: self-cleavage kobs at 40 uM GlcN6P; higher = faster cleavage; RNA array
In short: as §1

glucosamine-6-phosphate [3] = variants of: B1; experiment: self-cleavage kobs at 160 uM GlcN6P; higher = faster cleavage; RNA array
In short: as §1

glucosamine-6-phosphate [4] = variants of: B1; experiment: self-cleavage kobs at 2500 uM GlcN6P; higher = faster cleavage; RNA array
In short: as §1

glucosamine-6-phosphate [5] = variants of: B1; experiment: self-cleavage kobs at 640 uM GlcN6P; higher = faster cleavage; RNA array
In short: as §1

glucosamine-6-phosphate [6] = variants of: B1; experiment: self-cleavage kobs at 10000 uM GlcN6P; higher = faster cleavage; RNA array
In short: as §1

glucosamine-6-phosphate [7] = variants of: B1; experiment: KM; higher = weaker cofactor use; RNA array
In short: as §1

Variant	kcat (glucosamine-6-phosphate [1]) [s⁻¹]	self-cleavage kobs at 40 uM GlcN6P (glucosamine-6-phosphate [2]) [s⁻¹]	self-cleavage kobs at 160 uM GlcN6P (glucosamine-6-phosphate [3]) [s⁻¹]	self-cleavage kobs at 2500 uM GlcN6P (glucosamine-6-phosphate [4]) [s⁻¹]	self-cleavage kobs at 640 uM GlcN6P (glucosamine-6-phosphate [5]) [s⁻¹]	self-cleavage kobs at 10000 uM GlcN6P (glucosamine-6-phosphate [6]) [s⁻¹]	KM (glucosamine-6-phosphate [7]) [mM]
AUAAAAGCGCCAGAACUACAGAAAUGUAGUUCACGAGGAGGAGGUUUAUCUAAUUUUCGGCGGAUGCCUCCAAA [G32C G51U]	< 1e-05	–	–	–	–	–	–
AUAAAAGCGCCAGAACUACAGAAAUGUAGUUCGCGAGGAGGAGGUUUAUCGAAUUUUCGGCGGAUGCCUCCAAA [G32C A33G]	< 1e-05	< 1e-05	< 1e-05	< 1e-05	–	–	–
AUAAAAGCGCCAGAACUACAGAAAUGUAGUUAACGAGGAGGAGGUUUAUCGAACUUUCGGCGGAUGCCUCCAAA [G32A U54C]	0.00356 ± 0.0013	3.45e-05 ± 1.1e-05	–	0.00147 ± 0.00026	0.000309 ± 6.5e-05	0.0022 ± 0.00036	–
AUAAAAGCGCCAGAACUACAGAAAUGUAGUUCACGAGGAGGAGGUUUAUCGAAUUUUCGGCGGAUGCCUCAAAA [G32C C71A]	1.79e-05 ± 3.7e-06	–	–	–	–	–	–
AUAAAAGCGCCAGAACUACAGAAAUGUAGUUAACGAGGAGGAGGUUUAUCGAAUUUUCGGCGGAUGCCGCCAAA [G32A U69G]	6.22e-05 ± 1.2e-05	3.77e-05 ± 1.4e-05	–	5.99e-05 ± 9.1e-06	0.000117 ± 1.8e-05	5.26e-05 ± 8.5e-06	–
AUAAAAGCGCCAGAACUACAGAAAUGUAGUUCACGAGGAGGAGGUUUAUCGAAUUUUUGGCGGAUGCCUCCAAA [G32C C58U]	3.33e-05 ± 5.5e-06	–	–	–	–	–	–
AUAAAAGCGCCAGAACUACAGAAAUGUAGUUCACGAGGAGGAGGUUUAUCGAAUUUUAGGCGGAUGCCUCCAAA [G32C C58A]	0.000602 ± 8.9e-05	–	–	0.000139 ± 1.7e-05	4.35e-05 ± 8.2e-06	0.000333 ± 4.8e-05	8.22 ± 1.7
AUAAAAGCGCCAGAACUACAGAAAUGUAGUUAACGAGGAGGAGGUUUAUCGAAUUUUCGCCGGAUGCCUCCAAA [G32A G60C]	< 1e-05	–	–	–	–	< 1e-05	0.183 ± 0.055
AUAAAAGCGCCAGAACUACAGAAAUGUAGUUAACGAGGAGGAGGUUUAUCGAAUUUUCGACGGAUGCCUCCAAA [G32A G60A]	< 1e-05	< 1e-05	< 1e-05	–	< 1e-05	–	–
AUAAAAGCGCCAGAACUACAGAAAUGUAGUUUACGAGGAGGCGGUUUAUCCAAUUUUCGGCGGAUGUCUCCAAA [G32U A42C G51C C67U]	1.49e-05 ± 6.1e-07	–	–	–	–	–	3.62 ± 0.38
AUAAAAGCGCCAGAACUACAGAAAUGUAGUUAACGAGGAGGAGGAUUAUCGAAUUUUCGGCGGAUGCCUCCAAA [G32A U45A]	0.00555 ± 0.00055	9.16e-05 ± 1.5e-05	0.000267 ± 6.7e-05	0.003 ± 0.001	0.00117 ± 0.00024	0.00438 ± 0.00057	2.58 ± 0.37
AUAAAAGCGCCAGAACUACAGAAAUGUAGUUAACGAGGAGGAGGGUUAUCGAAUUUUCGGCGGAUGCCUCCAAA [G32A U45G]	0.000591 ± 0.00017	–	–	0.000204 ± 5.3e-05	0.000212 ± 4.3e-05	0.000488 ± 5.2e-05	–
AUAAAAGCGCCAGAACUACAGAAAUGUAGUUCACGAGGAGGAUGUUUAUCGAAUUUUCGGCGGAUGCCUCCAAA [G32C G43U]	< 1e-05	< 1e-05	< 1e-05	–	< 1e-05	< 1e-05	–
AUAAAAGCGCCAGAACUACAGAAAUGUAGUUCACGAGGAGGAGGGUUAUCGAAUUUUCGGCGGAUGCCUCCAAA [G32C U45G]	2.74e-05 ± 2.5e-06	< 1e-05	< 1e-05	–	–	–	2.96 ± 1
AUAAAAGCGCCAGAACUACAGAAAUGUAGUUAACGAGGAGGAGGUUUAUCGAAUAUUCGGCGGAUGCCUCCAAA [G32A U55A]	0.00351 ± 0.00053	5.08e-05 ± 9.5e-06	0.00014 ± 1.7e-05	0.00144 ± 0.00022	0.000541 ± 5.3e-05	0.00261 ± 0.00038	3.54 ± 0.69
AUAAAAGCGCCAGAACUACAGAAAUGUAGUUCACGAGGUGGAGGUUUAUCGAAUUUUCGGCGGAUGCCUCCAAA [G32C A39U]	6.89e-05 ± 3.3e-06	–	–	–	–	3.58e-05 ± 6.1e-06	9.27 ± 0.88
AUAAAAGCGCCAGAACUACAGAAAUGUAGUUAACGAGGAGGAGGUUUAACGAAGUUUCAGCGGAUGUCUCCAAA [G32A U49A U54G G59A C67U]	1.76e-05 ± 5.6e-06	–	–	–	–	–	–
AUAAAAGCGCCAGAACUACAGAAAUGUAGUUCACGAGGAGGAGGUUUAUCGAAUUUUCGGCGGAUGCUUCCAAA [G32C C68U]	1.25e-05 ± 1.1e-06	–	< 1e-05	–	–	–	1.35 ± 0.62
AUAAAAGCGCCAGAACUACAGAAAUGUAGUUUCCGAGGAGGAGGUUUAUCGAAUUUUCGGCGGAUGCCUCCAAA [G32U A33C]	< 1e-05	–	< 1e-05	–	< 1e-05	–	–
AUAAAAGCGCCAGAACUACAGAAAUGUAGUUCACGAGGAGGAGGUUUAUCGGAUUUUCGGCGGAUGCCUCCAAA [G32C A52G]	1.94e-05 ± 5.2e-06	–	–	–	–	–	–
AUAAAAGCGCCAGAACUACAGAAAUGUAGUUAACGAGGAGGAGGUUUAUCGAAUUUUCGGCGGAGGCCUCCAAA [G32A U65G]	0.000643 ± 0.00019	–	–	0.000139 ± 2.7e-05	7.49e-05 ± 2.1e-05	0.000374 ± 5e-05	7.62 ± 3.8
